Measurements: patent publication US10501552B2, “Multivalent molecules comprising DR5-binding domains” (MacroGenics, Inc., priority 2015, dated 2019)

Tests used:
22RV1 = test: MTS cell proliferation assay; format: cell-based; settings: 22RV1 (Prostate); 1 μg/ml, ±10 μg/ml αmFc; two days
Procedure: (§1) Cell lines obtained from ATCC were cultured under standard tissue culture conditions. Each cell line was plated at ˜2×10^4 cells/well (in 96-well plates), and incubated overnight in F12/DMEM media supplemented with 10% FBS. […] Cell viability was determined using Promega CellTiter 96® AQeous Non-Radioactive Cell Proliferation Assay (Cat # G5430) essentially as described in the manufacturer's instructions to assay the amount of soluble formazan produced by cellular reduction of the MTS, which is a measure of the number of viable cells in the culture. Briefly, MTS/PMS regent was added to the wells and the absorbance at 490 nm (referenced at […]) was read in a Molecular Devices ThermoMax microplate reader.
(§2) Similar studies were performed over a range of anti-DR5 mAb concentrations from ˜10^−3 nM to ˜10^2 nM. The data for COLO205 cells is provided in FIG. 13, and are representative of cell lines sensitive to the antibodies of the invention.
(§3) The cytotoxicity of tetravalent DR5-Binding Molecules of the present invention was investigated. […] His-tagged TRAIL (R&D systems) was used as a positive control.
(§4) Similar studies were performed over a range of anti-DR5 mAb concentrations from ˜10^−3 nM to ˜10^2 nM.

AsPC1 = test: MTS cell proliferation assay; format: cell-based; settings: AsPC1 (Pancreas); 1 μg/ml, ±10 μg/ml αmFc; two days
Procedure: as §1, §2, §3, §4

BT474 = test: MTS cell proliferation assay; format: cell-based; settings: BT474 (Breast); 1 μg/ml, ±10 μg/ml αmFc; two days
Procedure: as §1, §2, §3, §4

CaKi2 = test: MTS cell proliferation assay; format: cell-based; settings: CaKi2 (Kidney); 1 μg/ml, ±10 μg/ml αmFc; two days
Procedure: as §1, §2, §3, §4

Calu3 = test: MTS cell proliferation assay; format: cell-based; settings: Calu3 (Lung); 1 μg/ml, ±10 μg/ml αmFc; two days
Procedure: as §1, §2, §3, §4

ES2 = test: MTS cell proliferation assay; format: cell-based; settings: ES2 (Ovary); 1 μg/ml, ±10 μg/ml αmFc; two days
Procedure: as §1, §2, §3, §4

HPAFII = test: MTS cell proliferation assay; format: cell-based; settings: HPAFII (Pancreas); 1 μg/ml, ±10 μg/ml αmFc; two days
Procedure: as §1, §2, §3, §4

Hs700T = test: MTS cell proliferation assay; format: cell-based; settings: Hs700T (Pancreas); 1 μg/ml, ±10 μg/ml αmFc; two days
Procedure: as §1, §2, §3, §4

Hs746T = test: MTS cell proliferation assay; format: cell-based; settings: Hs746T (Stomach); 1 μg/ml, ±10 μg/ml αmFc; two days
Procedure: as §1, §2, §3, §4

MDA-MB-231 = test: MTS cell proliferation assay; format: cell-based; settings: MDA-MB-231 (Breast); 1 μg/ml, ±10 μg/ml αmFc; two days
Procedure: as §1, §2, §3, §4

MDA-MB-361 = test: MTS cell proliferation assay; format: cell-based; settings: MDA-MB-361 (Breast); 1 μg/ml, ±10 μg/ml αmFc; two days
Procedure: as §1, §2, §3, §4

SKOV3 = test: MTS cell proliferation assay; format: cell-based; settings: SKOV3 (Ovary); 1 μg/ml, ±10 μg/ml αmFc; two days
Procedure: as §1, §2, §3, §4

SW48 = test: MTS cell proliferation assay; format: cell-based; settings: SW48 (Colon); 1 μg/ml, ±10 μg/ml αmFc; two days
Procedure: as §1, §2, §3, §4

COLO205 [1] = test: MTS cell proliferation assay; format: cell-based; settings: COLO205 (Colon); 1 μg/ml, ±10 μg/ml αmFc; two days
Procedure: as §1, §2, §3, §4
His-tagged TRAIL (R&D systems) was used as a positive control.

colon cancer tissue = test: tissue staining with labeled molecule; format: binding; settings: 5 μg/mL
Excerpt: (§5) The results presented in FIGS. 15A-15B, 16, and Table 10, thus indicate that a tetravalent DR5-Binding Molecule (bispecific for two epitopes of DR5) was capable of specifically binding to cancer cells.

lung cancer tissue = test: tissue staining with labeled molecule; format: binding; settings: 5 μg/mL
Excerpt: as §5

[2] = system: normal tissue (colon, liver, lung, pancreas, kidney, heart); test: tissue staining with labeled molecule; format: binding; settings: 5 μg/mL
Excerpt: as §5

COLO205 [3] = test: […]-GLO cell viability assay with vorinostat; format: cell-based; settings: for synergy with vorinostat: 0.1 or 1 μM vorinostat; for Average % Ctrl: one day
Procedure: For the first study COLO205 cells were plated at 2×10^4 cells/well (in 96-well plates), and incubated overnight in F12/DMEM media supplemented with 10% FBS. […] Cell viability was determined using Promega […]-GLO® Luminescent Cell Viability Assay (Cat # G5430) essentially as described in the manufacturer's instructions to assay the amount of ATP present, which is a measure of the number of viable cells in the culture. Briefly, an […]-GLO® Reagent was added to the wells and mixed for two minutes to induce lysis and the luminescence was read in a in PerkinElmer EnVision multilabel plate reader.
Cell viability of cells treated with the test articles is normalized to the corresponding negative control (medium±vorinostat) which is set to 100% and reported in Table 12 as % of control for each test agent alone or % control for each test agent in combination with vorinostat. % of control values less than 100% indicate a reduction in viability and reflect the cytotoxicity of the test article alone or in combination with vorinostat.
The Net Gain (Average % Growth Inhibition)=% Medium Ctrl (10% FBS)−% Medium Ctrl (1/10 μM vorinostat), and represents increased cytotoxicity of the test article in combination with vorinostat over cells treated with vorinostat alone.

A549 = test: […]-GLO cell viability assay with vorinostat; format: cell-based, human; settings: A549 (Lung); 1 μg/ml + 10 μM Vorinostat
LNCap = test: […]-GLO cell viability assay with vorinostat; format: cell-based, human; settings: LNCap (Prostate); 1 μg/ml + 10 μM Vorinostat
NCI-N87 = test: […]-GLO cell viability assay with vorinostat; format: cell-based; settings: NCI-N87 (Stomach); 1 μg/ml + 1 μM Vorinostat
786O = test: […]-GLO cell viability assay with vorinostat; format: cell-based; settings: 786O (Kidney); 1 μg/ml + 1 μM Vorinostat
PC3 = test: […]-GLO cell viability assay with vorinostat; format: cell-based; settings: PC3 (Prostate); 1 μg/ml + 1 μM Vorinostat
[4] = Vorinostat 0 μM, % Medium Ctrl (10% FBS), 10 ng/ml tetravalent molecule or 1 μg/ml DR5 mAb
[5] = Vorinostat 0.1 μM, normalized to medium + vorinostat
[6] = Vorinostat 1 μM, normalized to medium + vorinostat

Molecule | % Inhibition (Average) (22RV1) [%] | % Inhibition (Average) (AsPC1) [%] | % Inhibition (Average) (BT474) [%] | % Inhibition (Average) (CaKi2) [%] | % Inhibition (Average) (Calu3) [%] | % Inhibition (Average) (ES2) [%] | % Inhibition (Average) (HPAFII) [%] | % Inhibition (Average) (Hs700T) [%] | % Inhibition (Average) (Hs746T) [%] | % Inhibition (Average) (MDA-MB-231) [%] | % Inhibition (Average) (MDA-MB-361) [%] | % Inhibition (Average) (SKOV3) [%] | % Inhibition (Average) (SW48) [%] | % Inhibition (Average) (COLO205 [1]) [%] | labeling of cells of colon cancer tissue (colon cancer tissue) | labeling of cells of lung cancer tissue (lung cancer tissue) | labeling of cells of normal tissue [2] | synergy with vorinostat (COLO205 [3]) | Average % Ctrl (COLO205 [3]; [4]) [%] | Net Gain (Average % Growth Inhibition) (COLO205 [3]; Vorinostat 0.1 μM) [%] | also measured
DR5 mAb 1: anti-human DR5 monoclonal antibody; VL SEQ ID NO:3, VH SEQ ID NO:8 (antibody, listed as Mus musculus, V domains shown, (1)..(121) Anti-DR5 Antibody mAb 1 Heavy Chain Variable Region; (1)..(111) Anti-DR5 Antibody mAb 1 Light Chain Variable Region) VH: EVKFLESGGGLVQPGGSLKLSCVASGFDFSRYWMSWVRQAPGKGLEWIGEINPDSNTINYTPSLKDKFIISRDNAKNTLYLQMTKVRSEDTALYYCTRRAYYGNPAWFAYWGQGTLVTVSS VL: DIVLTQSPASLAVSLGQRATISCRASKSVSSSGYSYMHWYQQKPGQPPKVLIFLSSNLDSGVPARFSGSGSGTDFTLNIHPVEDGDAATYYCQHSRDLPPTFGGGTKLEIK | 3.03 | 1.73 | 2.26 | 0.55 | 2.86 | 3.31 | 2.86 | 1.21 | 2.83 | 1.79 | 1.54 | 3.16 | 2.65 | 3.5 | strongly label | strongly label | failed to label | did not synergize | 96.8 | 0 | Average % Ctrl (COLO205 [3]; [5]): 96.4%; Net Gain (Average % Growth Inhibition) (COLO205 [3]; Vorinostat 1 μM): 3%; Average % Ctrl (COLO205 [3]; [6]): 93.3%; Net Gain (Average % Growth Inhibition) (A549): 6.48%; Net Gain (Average % Growth Inhibition) (LNCap): 3.81%; Net Gain (Average % Growth Inhibition) (NCI-N87): 0.12%; Net Gain (Average % Growth Inhibition) (786O): 0.64%; Net Gain (Average % Growth Inhibition) (PC3): 1.59%
DR5 mAb 2: murine anti-human DR5 monoclonal antibody; VL SEQ ID NO:13, VH SEQ ID NO:18 (antibody, listed as Mus musculus, V domains shown, (1)..(119) Anti-DR5 Antibody mAb 2 Heavy Chain Variable Region; (1)..(107) Anti-DR5 Antibody mAb 2 Light Chain Variable Region) VH: KVQLQQSGAELVKPGASVKLSCKASGYTFTEYILHWVKQKSGQGLEWIGWFYPGNNNIKYNEKFKDKATLTADKSSSTVYMELSRLTSEDSAVYFCARHEQGPGYFDYWGQGTTLTVSS VL: DIVMTQSHKFMSTSVGDRVSITCKASQDVNTAVAWYQQKPGQSPKLLIYWASTRHTGVPDRFTGSGSGTDYTLTIKSVQAEDLTLYYCQQHYITPWTFGGGTKLEIK | 3.89 | 0.13 | 2.84 | 2.64 | 2.06 | 1.88 | 2.68 | 0.99 | 1.25 | 4.47 | 1.98 | 2.02 | 2.44 | 3.61 | strongly label | strongly label | failed to label | did not synergize | 96.4 | 0 | Average % Ctrl (COLO205 [3]; [5]): 96.5%; Net Gain (Average % Growth Inhibition) (COLO205 [3]; Vorinostat 1 μM): 1%; Average % Ctrl (COLO205 [3]; [6]): 95.5%; Net Gain (Average % Growth Inhibition) (A549): 6.48%; Net Gain (Average % Growth Inhibition) (LNCap): 4.49%; Net Gain (Average % Growth Inhibition) (NCI-N87): 0.36%; Net Gain (Average % Growth Inhibition) (786O): 2.33%; Net Gain (Average % Growth Inhibition) (PC3): 1.59%
